Legend:
[1] = target: T1, cell surface-bound human GPC3 on GPC3+ HepG2 cells (human, UniProt P51654 25-560, GPI anchor and heparin sulfate side chains, as the filing describes native GPC3); assay: flow cytometry at 10 µg/mL, PE anti-mouse IgG detection
T1 construct: Endogenous GPC3 of the HepG2 line; also called Glypican 3; native GPC3
Procedure: Anti-GPC3 mIgG1 antibodies were tested for the binding towards GPC3-positive HepG2 and GPC3-negative SK-Hep1 cells by flow cytometry. 10 μg/mL of constructed antibody was added to cells on ice for 1 hour.

[2] = target: T1, cell surface-bound human GPC3 on GPC3+ …; assay: FACS, phage on GPC3+ HepG2 cells
Procedure: The E-APLPHA™ scFv phage libraries were screened (panned) against human GPC3 by co-incubation with recombinant GPC3-expressing SK-Hep1 cells (SK-Hep1-GPC3), then confirmed by binding to GPC3+ HepG2 cells, both with flow cytometry (see Methods). 0.2 million SK-Hep1-GPC3 cells were co-incubated with the phage library (about 1×10⁷ pfu) for 1 hours at 4° C. The cell/phage mixture was washed in PBST, incubated with mouse anti-M13 antibody for 1 hour at 4° C., washed again in PBST, then incubated for 30 minutes in the dark at 4° C. with PE-conjugated anti-mouse IgG, and subjected to FACS analysis.
FACS was performed as described in Methods. […] Then cells were washed with PBS and fixed.

[3] = target: T1, cell surface-bound human GPC3 on GPC3+ …; assay: apparent Kd from FACS on GPC3+ HepG2 cells; the row is GC33 L2K by paragraph 806
Procedure: (§1) APC-conjugated anti-His tag mouse antibody (R&D Systems) was added in a volume of 100 μl, a 20-fold dilution of 5% FBS in PBS and 0.05% NaN₃ and incubated for 1 hour at 4° C. in the dark, then washed twice with PBS. The cells were fixed in 3-fold dilution of fixation buffer (BioLegend) in PBS in a volume of 150 μl. As a separate control, HepG2 cells were also incubated with APC-conjugated anti-His tag mouse antibody (R&D Systems) in the absence of any L2K bispecific antibody.

[4] = target: T1, cell surface-bound human GPC3 on GPC3+ …; assay: FACS titration on GPC3+ HepG2 cells, anti-His detection; the row is GC33 L2K by paragraph 806
Procedure: as §1

biotinylated rat GPC3 = target: T2, biotinylated rat GPC3 (rat, UniProt P13265 25-558, limits assumed, biotinylated (site not stated)); assay: ELISA, biotinylated rat GPC3 on streptavidin plate
T2 construct: also called rat bt-GPC3; rat GPC3 peptide
T2 sequence (P13265 25-558 limits assumed): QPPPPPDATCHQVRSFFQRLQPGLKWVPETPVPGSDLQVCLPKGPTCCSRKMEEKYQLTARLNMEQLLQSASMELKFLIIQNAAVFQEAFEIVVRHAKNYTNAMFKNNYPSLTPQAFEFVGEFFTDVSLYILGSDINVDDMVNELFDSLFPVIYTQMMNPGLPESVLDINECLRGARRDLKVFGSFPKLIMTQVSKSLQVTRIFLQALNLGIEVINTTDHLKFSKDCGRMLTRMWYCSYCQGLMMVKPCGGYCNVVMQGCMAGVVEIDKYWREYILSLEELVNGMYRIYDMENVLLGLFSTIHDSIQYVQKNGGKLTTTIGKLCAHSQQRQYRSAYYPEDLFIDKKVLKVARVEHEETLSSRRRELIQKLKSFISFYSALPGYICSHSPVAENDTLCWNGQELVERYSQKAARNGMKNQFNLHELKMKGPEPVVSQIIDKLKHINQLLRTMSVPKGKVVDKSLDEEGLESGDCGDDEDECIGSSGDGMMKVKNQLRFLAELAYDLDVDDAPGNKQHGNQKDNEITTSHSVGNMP

[5] = target: T3, biotinylated GPC3-51mer fragment (human, biotinylated (site not stated)); assay: phage ELISA on biotinylated GPC3-51mer
T3 construct: Synthesized by Elim Biopharmaceuticals; also called bt-GPC3-51mer; hGPC3-51mer fragment
T3 peptide: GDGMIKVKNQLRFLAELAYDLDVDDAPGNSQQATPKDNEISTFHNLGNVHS

[6] = target: T1, cell surface-bound human GPC3 on GPC3+ …; assay: FACS on GPC3+ HepG2 cells, labelled on the sheet GPC3A L2K against control L2K; control L2K median 93.8; axis PE-A
Procedure: APC-conjugated anti-His tag mouse antibody (R&D Systems) was added in a volume of 100 μl, a 20-fold dilution of 5% FBS in PBS and 0.05% NaN₃ and incubated for 1 hour at 4° C. in the dark, then washed twice with PBS. The cells were fixed in 3-fold dilution of fixation buffer (BioLegend) in PBS in a volume of 150 μl.

[7] = target: T1, cell surface-bound human GPC3 on GPC3+ …; assay: apparent Kd from FACS on GPC3+ HepG2 cells
Procedure: as §1

[8] = target: T1, cell surface-bound human GPC3 on GPC3+ …; assay: FACS titration on GPC3+ HepG2 cells, anti-His detection
Procedure: as §1

[9] = target: T4, biotinylated recombinant human GPC3(560) (human, biotin on the C-terminal BirA substrate peptide ; Biotin on a lysine of the C-terminal BirA substrate peptide, which is not in the letters.); assay: SPR, Biacore X100, single-cycle kinetics, bt-GPC3(560) captured on chip, 1:1 model
T4 construct: Made in E. coli BL21 (pET-27b) from inclusion bodies and biotinylated with BirA; also called bt-GPC3(560); soluble bt-GPC3(560) protein
Procedure: All of the proteins used in the assay were diluted in HBS-E buffer prior to use. Briefly, 5-10 μg/ml of bt-GPC3₍₅₆₀₎ was immobilized onto a sensor chip pre-functionalized with CAPture Reagent and injected onto the flow cell. Affinity of the L2K bispecific antibodies for immobilized antigen was measured by injection of the various bispecific antibodies at 0.3-5 mg/ml with a 90 second association phase followed by a 90 second dissociation phase at a flow rate of 30 μl/min. At the end of each run, the surface of the sensor chip was regenerated using the reagents provided in the Biotin CAPture kit. Binding constants were determined by nonlinear regression analysis using a 1:1 binding model (BIACORE™ X-100 evaluation software, FIGS. 15A and 15B). The association-on-rate-kₒₙ, affinity constant-kₐ, dissociation constant-kd, and equilibrium dissociation constant-Kd were then calculated for each L2K clone (Table 14).

B1: anti-GPC3 mIgG1 clone A-51 (antibody, V domains shown)
VH: QVQLVQSGAEVKKPGSSVKVSCKASGGAFSSYAISWVRQAPGQGLEWMGGIIPIFGTANYAQKFQGRVTITADESTSTAYMELSSLRSEDTAVYYCARMLYLSGRYYWDSWGQGTLVTVSS
VL: QAVLTQPSSASGAPGQRVTISCTGGSSNIGAGYDVHWYQQLPGTAPKLLIYGNSNRPSGVPDRFSGSKSGTSASLAITGLQAEDEADYYCQSYDSSLSGYVFGTGTKVTVLG
notes: Fused to mouse IgG1 heavy chain and light chain constant regions
binding result [1]: binds

B2: GPC3A-62 phage clone (scFv)
scFv: QSVLTQPPSVSGAPGQRVTISCTGSSSNIGAGYDVHWYQQLPGTAPKLLIYGNSNWPSGVPDRFSGSKSGTSASLAITGLRAEDEADYYCQSYDSSLSGSYVFGTGTKVTVLGSRGGGGSGGGGSGGGGSLEMAQMQLVQSGSELKKPGASVKVSCKASGGTFSSYAISWVRQAPGQGLEWMGGIIPKIGTANYAQKFQGRVTITADESTSTAYMELSSLRSEDTAMYYCARMYMDMGWGWGYWDWWGQGTLVTVSS
notes: also called GPC3A-062
binding result [2]: binds

B3: GC33 L2K (bispecific antibody, V domains shown)
VH: QVQLQQSGAELVKPGASVKLSCKASGYTFTDYEMHWVKQTPVHGLKWMIGALDPKTGDTAYSQKFKGKATLTADKSSSTAYMELRSLTSEDSAVYYCTRFYSYTYWGQGTLVTVSA
VL: DVVMTQTPLSLPVSLGDQASISCRSSQSLVHSNGNTYLHWYLQKPGQSPKLLIYKVSNRFSGVPDRFSGSGSGTDFTLKISRVEAEDLGVYFCSQNTHVPPTFGSGTKLEIK
notes: Tested as a single-chain tandem di-scFv: scFv of GC33 fused to an anti-human CD3 epsilon scFv, with a hexahistidine tag; also called GC33 antibody converted to an L2K
Kd [3]: 2.7 nM
EC50 [4]: 0.14 µg/mL

B4: anti-GPC3 mIgG1 clone A-64 (antibody, V domains shown)
VH: QMQLVQSGAEVKKPGASVKVSCKASGYTFTIYGISWVRQAPGQGLEWMGWISPYNDNTIYAQKVQGRVTMTTDTSTSTAYMELRSLRSDDTAVYYCARMGVGWGYAQDSWGQGTLVTVSS
VL: LPVLTQPPSLSVAPGKTARLTCGGNNIGSKSVHWYHQKPGQAPVLVVYDDTDRPSGIPERFSGSNSGNTAALTISRVEVGDEADYYCQVWDRSSAHWVFGGGTKLTVLG
notes: as for B1
binding result [1]: binds

B5: GPC3A-53 mIgG1 clone (antibody, V domains shown)
VH: QLQLQESGPGLVKPSETLSLTCTVSGGSISSSSYYWGWIRQPPGKGLEWIGSIYYSGSTYYNPSLKSRVTISVDTSKNQFSLKLSSVTAADTAVYYCARWWSGSYDTWGQGTLVTVSS
VL: QSVLTQPPSASAAPGQRVTISCSGTSSNIGSNYVWWYQQLPGAAPRLLIYGNSNRPSGVPDRFSGSKSGTSASLAITGLQAEDEADYYCQSYDSSLSGSNVFGTGTKVTVLG
notes: Mouse chimeric IgG1; also called GPC3A mIgG1 clone A-53
binding result (biotinylated rat GPC3): no binding (tested: 5 µg/mL)

B6: GPC3A-42 phage clone (scFv)
scFv: SYVLTQPPSASGTPGQRVTISCFGSSSDIGSNSVFWYQQLPGAAPKLLIYSTQYRPSGVPDRFSGSKSGTSASLAISGLQSEDEAEYHCATWDDSLNGYVFGSGTKVTVLGSRGGGGSGGGGSGGGGSLEMAQVQLQQSGAEVKKPGASVKVSCKASGYSFTGYYVYWMRQAPGKGLEWMGWMNPRSGGTNYAQKFQGRVTMTRDTSISTAYMELSRLTSDDTAVYYCARSSYYWADSWGQGTLVTVSS
notes: also called GPC3A-042
binding result [5]: no binding

B7: #64 GPC3A L2K (bispecific antibody)
tandem di-scFv: LPVLTQPPSLSVAPGKTARLTCGGNNIGSKSVHWYHQKPGQAPVLVVYDDTDRPSGIPERFSGSNSGNTAALTISRVEVGDEADYYCQVWDRSSAHWVFGGGTKLTVLGSRGGGGSGGGGSGGGGSLEMAQMQLVQSGAEVKKPGASVKVSCKASGYTFTIYGISWVRQAPGQGLEWMGWISPYNDNTIYAQKVQGRVTMTTDTSTSTAYMELRSLRSDDTAVYYCARMGVGWGYAQDSWGQGTLVTVSSTSGGGGSDVQLVQSGAEVKKPGASVKVSCKASGYTFTRYTMHWVRQAPGQGLEWIGYINPSRGYTNYADSVKGRFTITTDKSTSTAYMELSSLRSEDTATYYCARYYDDHYCLDYWGQGTTVTVSSGEGTSTGSGGSGGSGGADDIVLTQSPATLSLSPGERATLSCRASQSVSYMNWYQQKPGKAPKRWIYDTSKVASGVPARFSGSGSGTDYSLTINSLEAEDAATYYCQQWSSNPLTFGGGTKVEIKHHHHHH
notes: also called GPC3A-64 L2K; GPC3-64 L2K
Median : PE-A [6]: 6600

B8: GPC3A-37 phage clone (scFv)
scFv: QSVLTQPPSVSAAPGQRVTISCSGTRSNIGSDYVSWYQHLPGTAPKLLVYGDNLRPSGIPDRFSASKSGTSATLGITGLQTGDEADYYCGTWDYTLNGVVFGGGTKLTVLGSRGGGGSGGGGSGGGGSLEMAQVQLVESGGGLVQPGGSLRLSCAASGFTFSSYAMSWVRQAPGKGLEWVSVIYSGGSSTYYADSVKGRFTISRDNSKNTLYLQMNSLRAEDTAVYYCARTSYLNHGDYWGQGTLVTVSS
notes: also called GPC3A-037
binding result [5]: no binding

B9: GPC3A-43 phage clone (scFv)
scFv: QSVLTQPPSASGTPGQRVTISCSGSSSNIGTNYVYWYQQLPGTAPKLIIYRNNQRPSGVPDRFSGSESGTSASLAISGLRSEDEADYYCAVWDDSLSGVVFGGGTKLTVLGSRGGGGSGGGGSGGGGSLEMAEVQLVQSGAEVKKPGATVKVSCKVSGYTFTDYYMHWVQQAPGKGLEWMGLVDPEDGETIYAEKFQGRVTITADTSTDTAYMELSSLRSEDTAVYYCARELRDVAYYPWGVEDFWGQGTLVTVSS
notes: also called GPC3A-043
binding result [5]: no binding

B10: GPC3A-38 phage clone (scFv)
scFv: QSVLTQPPSVSVAPGKTARITCGGNNIGSKSVHWYQQKPGQAPVLVIYYDSDRPSGIPERFSGSNSGNTATLTISRVEAGDEADYYCQVWDSSSDHVVFGGGTKLTVLGSRGGGGSGGGGSGGGGSLEMAQVQLVQSGAEVKKPGASVKVSCKASGYTFTSYYMHWVRQAPGQGLEWMGIINPSGGSTSYAQKFQGRVTMTRDTSTSTVYMELSSLRSEDTAVYYCARKVTGYDSWGQGTLVTVSS
notes: also called GPC3A-038
binding result [2]: binds

B11: GPC3A-58 L2K (bispecific antibody)
chain: QSVLTQPPSVSVAPGKTARITCGGNNIGSKSVHWYQQKPGQAPVLVVYDDSDRPSGIPERFSGSNSGNTATLTISRVEAGDEADYYCQVWDSSSDHVFGTGTKVTVLGSRGGGGSGGGGSGGGGSLEMAQVQLVQSGADVRKPGASVKVSCKASGYTFASHGISWVRQAPGQGLEWLGWISPYTGNTNYAQKFQGRVTMATDTSTSTAYMELRSLRSDDTAIYYCARGKRTLASCFDYWGQGTLVTVSSTSGGGGSDVQLVQSGAEVKKPGASVKVSCKASGYTFTRYTMHWVRQAPGQGLEWIGYINPSRGYTNYADSVKGRFTITTDKSTSTAYMELSSLRSEDTATYYCARYYDDHYCLDYWGQGTTVTVSSGEGTSTGSGGSGGSGGADDIVLTQSPATLSLSPGERATLSCRASQSVSYMNWYQQKPGKAPKRWIYDTSKVASGVPARFSGSGSGTDYSLTINSLEAEDAATYYCQQWSSNPLTFGGGTKVEIKHHHHHH
notes: also called GPC3A L2K bispecific antibody #58
Kd [7]: 2.4 nM
EC50 [8]: 0.12 µg/mL
Kd [9]: 5.1 nM
koff [9]: 0.00188 s⁻¹
kon [9]: 368000 M⁻¹ s⁻¹
Median : PE-A [6]: 8030
